According to patent publication US10881709B2, “Immune system modulators and compositions” (Canimguide Therapeutics AB, priority 2015, dated 2021):

How the values were obtained:
P3028 (SEQ ID NO: 185) = P3028 (SEQ ID NO: 185) (Homo sapiens, UniProt P02768); experiment: PEPSCAN ELISA (rampo assay): binding of His-tagged P3028 to immobilised peptides; conditions: truncations, deletions, glycine substitutions
Protocol: Based on the structure of peptide P28R, additional peptides were identified that bind to P3028. The additional binders included deletions, truncations, and or amino acid substitutions of peptide P28R. Binding of peptides to P3028 was assayed using PEPSCAN technology. PEPSCAN technology, or “rampo” assays are biochemical binding assays, details of which are provided below:
A peptide microarray screening technology was used to measure binding of P28R (SEQ ID NO: 2) and variants of P28R to P3028 (SEQ ID NO: 185). In this technology libraries of synthetic peptides are synthesized and covalently linked onto polypropylene microarray chips. The linear peptides were synthesized onto credit-card format polypropylene cards (455 peptide formats/card) as described by (Timmerman et al., 2004) using standard Fmoc-chemistry using hexamethylenediamine (HMDA) as linker and deprotection using trifluoroacetic acid (TFA) with scavengers.
The binding of His-tagged P3028 to each peptide on the card was tested in an ELISA assay. The 455-well credit card format polypropylene cards containing the covalently linked peptides were incubated with His-tagged P3028 peptide (PGE73) solution consisting of 0.5 μg/mL diluted in blocking solution (4% horse serum, 5% ovalbumin (w/v) in PBS/1% Tween). After washing, the peptides were incubated with a monoclonal mouse anti-His-tag antibody (Novagen®, 70796-3, diluted 1/1000 in the incubation buffer) and subsequently after washing with a rabbit-anti-mouse antibody peroxidase (Rampo) conjugate (Southern Biotech®, 6175-05, diluted 1/1000), for one hour at 25° C. After washing, the peroxidase substrate 2,2′-azine-di-3-ethylbenzthiazoline sulfonate (ABTS) and 2 μL of 3% H2O2 were added. The binding capacity of the mAb was measured as a color development at 405 nm (optical density, OD405). The color development was quantified with a charge-coupled device (CCD)—camera and an image processing system.
The OD405-values obtained by a CCD-camera was considered as raw data values (“rampo values,” “rampo units,” or “rampo scores”). The values mostly ranged from 0 to 3000, a log scale similar to 1 to 3 of a standard 96-well plate ELISA-reader. First the CCD-camera made a picture of the card before peroxidase coloring and then again a picture after the peroxidase coloring. […] These values were copied into an excel file and labeled as a raw data file. One follow-up manipulation was allowed. Sometimes a well can contain an air-bubble resulting in a false-positive value. If manual inspection of the cards detect an air-bubble the value are set to 0 for that well.
A library of peptides tested for binding to peptide P3028 included all substitutions for each position of the peptide P28R (SEQ ID NO: 2) (i.e., 19 substitutions for each position). The results of the binding experiments are shown in FIGS. 27, 28, 29 and 30 and Table 5.1. […] P28R had rampo values ranging between 262 and 460 with a mean value of 370. […] In addition, M and S in position 7 (SEQ ID NOs: 9 and 10, respectively), and Q and M in position 11 (SEQ ID NOs: 15 and 16, respectively) all have rampo values over 700.
For each position of P28R, the rampo scores of the group of 19 different peptides containing an L-amino acid substitution were compared to the rampo score of a control sample P28R peptide (SEQ ID NO: 2) for that group. Single-amino acid substitutions having a rampo score greater than or substantially equivalent to P28R were identified. As used herein, a rampo score “substantially equivalent to P28R” is a rampo score that is at least 98% of the rampo score of P28R. Thus, variants of P28R having equivalent or better binding to P3028 were identified.

[1] = tested on: PBMCs from healthy control person; experiment: PBMC activation (CD69/CD71, flow cytometry) in RPMI plus 10% human AB serum; type: cell-based; conditions: 40 μg/mL
Protocol: The activity of peptide P28R (SEQ ID NO: 2) and modifications of P28R was studied in a human ex vivo model using PBMCs in short term cultures, 24 or 48 hours. Effects of P28R and modifications of P28R on PBMCs from a healthy control person were studied. Activation was measured as percentage of cells with enhanced marker CD69 using flow cytometry. PBMCs were incubated with the peptides (40 μg/mL) for 24 hours in RPMI plus 10% human AB serum.
As observed in Example 37, P28R (SEQ ID NO: 2) can stimulate PBMCs from healthy controls in short term cultures when RPMI plus 10% normal human AB serum is used as culture medium. Truncations of P28R were also assessed for their ability to activate PBMCs. PBMCs were incubated with the peptides (40 μg/mL) for 24 hours in RPMI plus 10% human AB serum. PBMC activation was measured as percent cells with enhanced expression of either CD69 (FIG. 42A) or CD71 (FIG. 42B) using flow cytometry. Two experiments were performed for each peptide.
Effects of modified peptides on activation of PBMCs from healthy control person were assessed. Activation was determined as percentage of cells with enhanced marker CD69 or CD71 using flow cytometry. PBMCs were incubated with the peptides (40 μg/mL) for 48 hours in RPMI plus 10% human AB serum.

PBMCs = experiment: IL-2 induced proliferation of PBMCs, 3H-thymidine incorporation (human ex vivo model); type: cell-based; conditions: PBMCs from healthy control samples, 7 days, 3H-thymidine
Protocol: 100 μl of RPMI1640 supplemented with 200 IU/ml penicillin, […] streptomycin, 4 mM L-glutamine (all from Sigma® Chemical Co. MO, US) and 20% heat-inactivated human serum (autologous or from cancer patients) were added to uncoated, HSA or HSA/IgG coated tissue culture microtiter plates. PBMC, isolated from healthy individuals or patients with metastatic renal cell carcinoma, were diluted in RPMI/2% HSA at a concentration of 5×10^5/ml and 100 μl were added to the microtiter wells. Interleukin-2 (IL-2, Proleukin®, Chiron®, NL), at a final concentration of 120 IU/well, was added to some wells. Cells were cultured for 7 days in a humidified, 5% CO2-atmosphere at 37° C. Proliferation was assayed by incorporation of 1.6 μCi/well of [^3H]-thymidine (Amersham® Int., UK) during the last 18 hrs. Mean values of dpm (disintegrations per minute) of triplicates were used for the calculations.
Cultures for IL-2 induced proliferation was set up with PBMC from healthy donors and autologous serum as described above with the exception that PBMC were first pre-incubated for 30 min at room temperature with the indicated albumin peptides at a concentration of 10 μg/ml.
Round-bottomed, 96-well tissue culture plates (Costar®, Corning® Inc. NY, US) were pre-coated with HSA only or HSA and pooled human IgG for intravenous injection (Gammagard®, Baxter AS, DK) as follows; HSA was diluted in RPMI1640 without supplements to a concentration of 10 mg/ml. A mixture of 1 mg/ml IgG in a solution of 9 mg/ml HSA in RPMI (HSA/IgG) was also prepared. 200 μl of HSA or HSA/IgG were then added to each well of the plate. The plates were incubated at 4° C. for 30 minutes after which the wells were washed twice with 200 μl of RPMI1640. The coated plates were used immediately. 100 μl of RPMI1640 supplemented with 200 IU/ml penicillin, […] streptomycin, 4 mM L-glutamine (all from Sigma® Chemical Co. MO, US) and 20% heat-inactivated human serum (autologous) were added to the HSA or HSA/IgG coated tissue culture microtiter wells. PBMC, isolated from healthy individuals, were diluted in RPMI/2% HSA and peptides were added directly to the cell suspension at a concentration of 10 μg/ml. One hundred μl of this cell suspension (5×10^4 lymphocytes) was then added per well providing a final concentration of 5 μg/ml peptide per well. IL-2 (Proleukin®, Chiron®, NL), at a final concentration of 120 IU/well, was added to the wells. Cells were cultured for 7 days in a humidified, 5% CO2-atmosphere at 37° C. Proliferation was assayed by incorporation of 1.6 μCi/well of [^3H]-thymidine (Amersham® Int., UK) during the last 18 hrs. Mean values of dpm (disintegrations per minute) of triplicates were used for the calculations.
The model included PBMCs isolated from venous blood samples from healthy blood donors (control samples) or cancer patients. One hundred pI of culture medium (RPMI 1640 Dutch's modification (Gibco®, InVitrogenAB®, Stockholm, Sweden) supplemented with 200 IV/ml penicillin, 200 ug/ml streptomycin, 4 mM L-glutamine (all from Sigma® Chemical Co. MO, US) and 20% heat-inactivated human serum) were added to roundbottomed, 96-well tissue culture plates (Costar®, Corning® Inc. NY, US). […] Control sample wells without IL-2 was set up in parallel. […]
The effect of different peptides on IL-2 induced proliferation was analyzed in the human ex vivo model, using PBMCs from healthy control samples. […] Proliferation was measured as incorporation of ^3H-thymidine during the final 18 hours. […]

[2] = 24 hours, healthy control person

Substance	rampo score / affinity to P3028 compared with P28R (P3028 (SEQ ID NO: 185))	also measured
FVKL [SEQ ID NO: 63]	comparable rampo score	
KKFFVKLSLFTER [SEQ ID NO: 76]	comparable to, or higher than peptide P28R	
KKGDTFFVKLSLFTER [SEQ ID NO: 287]	comparable to P28R	
KKLDGFFVKLSLFTER [SEQ ID NO: 95]	comparable to P28R	
KKLDTFFPKLSLFTER [SEQ ID NO: 329]		PBMC activation, enhanced CD69 or CD71 ([1]; 24 hours, healthy PBMCs): did not activate
KKLDTFFVDLSLFTER [SEQ ID NO: 569]		PBMC activation, cells with enhanced CD69 [1, 2]: did not stimulate
KKLDTFFVGLSLFTER [SEQ ID NO: 98]	comparable to P28R	
KKLDTFFVKLGLFTER [SEQ ID NO: 99]	comparable to P28R	
KKLDTFFVKLSFTER [SEQ ID NO: 68]	comparable to, or higher than peptide P28R	
KKLDTFFVKLSLFTE [SEQ ID NO: 34]	retained a high affinity	
KKLDTFFVKLSLFTFR [SEQ ID NO: 571]		PBMC activation, cells with enhanced CD69 [1, 2]: did not stimulate
KKLDTFFVNLSLFTER [SEQ ID NO: 518]		PBMC activation, cells with enhanced CD69 [1, 2]: did not stimulate
KKLDTFGVKLSLFTER [SEQ ID NO: 96]	comparable to P28R	
KKLDTFVKLSLFTER [SEQ ID NO: 65]	comparable to, or higher than peptide P28R	
KKLDTVMVKLQLMTER [compound 30680]		PBMC activation, cells with enhanced CD69 [1, 2]: induced activation
KKLTFFVKLSLFTER [SEQ ID NO: 64]	comparable to, or higher than peptide P28R	
KSLDTFFVKLSLFTER [SEQ ID NO: 510]		PBMC activation, cells with enhanced CD69 [1, 2]: did not stimulate
KVPQVSTPTLVEVSR (listed as Homo sapiens) [P3029]		inhibition of IL-2 induced proliferation (PBMCs): none
RKLDTFFVKLSLFTERRR [compound 32814]		PBMC activation, enhanced CD69 and CD71 ([1]; 48 hours, healthy control person): stimulatory effect in short term cultures similar to that of P28R
